Assay results from patent US20210388087A1 (Chugai, published 2021).

The binders below were run against T1, CD3 epsilon homodimer protein (UniProt P07766 23-126) (assay: SPR, CD3 epsilon homodimer on chip, one-arm antibody as analyte;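 also: surface plasmon resonance at 25 °C with CD3 epsilon homodimer amine-coupled to a CM4 sensor chip, antibody injected as analyte, HBS-EP+ as running buffer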).
T1 construct: also called CD3 (CD3 epsilon)
T1 sequence (P07766 23-126): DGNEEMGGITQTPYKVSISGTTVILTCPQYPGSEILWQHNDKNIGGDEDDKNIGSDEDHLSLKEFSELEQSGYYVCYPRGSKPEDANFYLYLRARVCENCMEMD

Binder	KD ratio (KD of CE115HA000/KD of altered form)
CE115HA000 D101S (antibody, human IgG1, kappa, L234A L235A, N297A, name in Kabat numbering, one-arm antibody) heavy: QVQLVESGGGVVQPGRSLRLSCAASGFTFSNAWMHWVRQAPGKGLEWVAQIKAKSNNYATYYAESVKGRFTISRDDSKNSLYLQMNSLKTEDTAVYYCRYVHYGAYYGVSAWGQGTTVTVSSASTKGPSVFPLAPSSKSTSGGTAALGCLVKDYFPEPVTVSWNSGALTSGVHTFPAVLQSSGLYSLSSVVTVPSSSLGTQTYICNVNHKPSNTKVDKKVEPKSCDKTHTCPPCPAPEAAGGPSVFLFPPKPKDTLMISRTPEVTCVVVDVSHEDPEVKFNWYVDGVEVHNAKTKPREEQYASTYRVVSVLTVLHQDWLNGKEYKCKVSNKALPAPIEKTISKAKGQPREPQVYTLPPSRCELTKNQVSLSCAVKGFYPSDIAVEWESNGQPENNYKTTPPVLDSDGSFFLVSKLTVDKSRWQQGNVFSCSVMHEALHNHYTQKSLSLSPDYKDDDDK EPKSSDKTHTCPPCPAPELLGGPSVFLFPPKPKDTLMISRTPEVTCVVVDVSHEDPEVKFNWYVDGVEVHNAKTKPREEQYNSTYRVVSVLTVLHQDWLNGKEYKCKVSNKALPAPIEKTISKAKGQPREPQVCTLPPSRDELTKNQVSLWCLVKGFYPSDIAVEWESNGQPENNYKTTPPVLDSDGSFFLYSKLTVDKSRWQQGNVFSCSVMHEALHNRYTQKSLSLSP light: DIVMTQSPLSLPVTPGEPASISCRSSQSLVHSNRNTYLHWYQQKPGQAPRLLIYKVSNRFSGVPDRFSGSGSGTDFTLKISRVEAEDVGVYYCGQGTQVPYTFGQGTKLEIKRTVAAPSVFIFPPSDEQLKSGTASVVCLLNNFYPREAKVQWKVDNALQSGNSQESVTEQDSKDSTYSLSSTLTLSKADYEKHKVYACEVTHQGLSSPVTKSFNRGEC	0.91
CE115HA000 D101T (antibody, human IgG1, kappa, L234A L235A, N297A, name in Kabat numbering, one-arm antibody) heavy: QVQLVESGGGVVQPGRSLRLSCAASGFTFSNAWMHWVRQAPGKGLEWVAQIKAKSNNYATYYAESVKGRFTISRDDSKNSLYLQMNSLKTEDTAVYYCRYVHYGAYYGVTAWGQGTTVTVSSASTKGPSVFPLAPSSKSTSGGTAALGCLVKDYFPEPVTVSWNSGALTSGVHTFPAVLQSSGLYSLSSVVTVPSSSLGTQTYICNVNHKPSNTKVDKKVEPKSCDKTHTCPPCPAPEAAGGPSVFLFPPKPKDTLMISRTPEVTCVVVDVSHEDPEVKFNWYVDGVEVHNAKTKPREEQYASTYRVVSVLTVLHQDWLNGKEYKCKVSNKALPAPIEKTISKAKGQPREPQVYTLPPSRCELTKNQVSLSCAVKGFYPSDIAVEWESNGQPENNYKTTPPVLDSDGSFFLVSKLTVDKSRWQQGNVFSCSVMHEALHNHYTQKSLSLSPDYKDDDDK EPKSSDKTHTCPPCPAPELLGGPSVFLFPPKPKDTLMISRTPEVTCVVVDVSHEDPEVKFNWYVDGVEVHNAKTKPREEQYNSTYRVVSVLTVLHQDWLNGKEYKCKVSNKALPAPIEKTISKAKGQPREPQVCTLPPSRDELTKNQVSLWCLVKGFYPSDIAVEWESNGQPENNYKTTPPVLDSDGSFFLYSKLTVDKSRWQQGNVFSCSVMHEALHNRYTQKSLSLSP light: DIVMTQSPLSLPVTPGEPASISCRSSQSLVHSNRNTYLHWYQQKPGQAPRLLIYKVSNRFSGVPDRFSGSGSGTDFTLKISRVEAEDVGVYYCGQGTQVPYTFGQGTKLEIKRTVAAPSVFIFPPSDEQLKSGTASVVCLLNNFYPREAKVQWKVDNALQSGNSQESVTEQDSKDSTYSLSSTLTLSKADYEKHKVYACEVTHQGLSSPVTKSFNRGEC	0.62

Other lines, results leading:

KD ratio (KD of CE115HA000/KD of altered form)	Binder
1.18	CE115HA000 D101V (antibody, human IgG1, kappa, L234A L235A, N297A, name in Kabat numbering, one-arm antibody) heavy: QVQLVESGGGVVQPGRSLRLSCAASGFTFSNAWMHWVRQAPGKGLEWVAQIKAKSNNYATYYAESVKGRFTISRDDSKNSLYLQMNSLKTEDTAVYYCRYVHYGAYYGVVAWGQGTTVTVSSASTKGPSVFPLAPSSKSTSGGTAALGCLVKDYFPEPVTVSWNSGALTSGVHTFPAVLQSSGLYSLSSVVTVPSSSLGTQTYICNVNHKPSNTKVDKKVEPKSCDKTHTCPPCPAPEAAGGPSVFLFPPKPKDTLMISRTPEVTCVVVDVSHEDPEVKFNWYVDGVEVHNAKTKPREEQYASTYRVVSVLTVLHQDWLNGKEYKCKVSNKALPAPIEKTISKAKGQPREPQVYTLPPSRCELTKNQVSLSCAVKGFYPSDIAVEWESNGQPENNYKTTPPVLDSDGSFFLVSKLTVDKSRWQQGNVFSCSVMHEALHNHYTQKSLSLSPDYKDDDDK EPKSSDKTHTCPPCPAPELLGGPSVFLFPPKPKDTLMISRTPEVTCVVVDVSHEDPEVKFNWYVDGVEVHNAKTKPREEQYNSTYRVVSVLTVLHQDWLNGKEYKCKVSNKALPAPIEKTISKAKGQPREPQVCTLPPSRDELTKNQVSLWCLVKGFYPSDIAVEWESNGQPENNYKTTPPVLDSDGSFFLYSKLTVDKSRWQQGNVFSCSVMHEALHNRYTQKSLSLSP light: DIVMTQSPLSLPVTPGEPASISCRSSQSLVHSNRNTYLHWYQQKPGQAPRLLIYKVSNRFSGVPDRFSGSGSGTDFTLKISRVEAEDVGVYYCGQGTQVPYTFGQGTKLEIKRTVAAPSVFIFPPSDEQLKSGTASVVCLLNNFYPREAKVQWKVDNALQSGNSQESVTEQDSKDSTYSLSSTLTLSKADYEKHKVYACEVTHQGLSSPVTKSFNRGEC
0.97	CE115HA000 D101Y (antibody, human IgG1, kappa, L234A L235A, N297A, name in Kabat numbering, one-arm antibody) heavy: QVQLVESGGGVVQPGRSLRLSCAASGFTFSNAWMHWVRQAPGKGLEWVAQIKAKSNNYATYYAESVKGRFTISRDDSKNSLYLQMNSLKTEDTAVYYCRYVHYGAYYGVYAWGQGTTVTVSSASTKGPSVFPLAPSSKSTSGGTAALGCLVKDYFPEPVTVSWNSGALTSGVHTFPAVLQSSGLYSLSSVVTVPSSSLGTQTYICNVNHKPSNTKVDKKVEPKSCDKTHTCPPCPAPEAAGGPSVFLFPPKPKDTLMISRTPEVTCVVVDVSHEDPEVKFNWYVDGVEVHNAKTKPREEQYASTYRVVSVLTVLHQDWLNGKEYKCKVSNKALPAPIEKTISKAKGQPREPQVYTLPPSRCELTKNQVSLSCAVKGFYPSDIAVEWESNGQPENNYKTTPPVLDSDGSFFLVSKLTVDKSRWQQGNVFSCSVMHEALHNHYTQKSLSLSPDYKDDDDK EPKSSDKTHTCPPCPAPELLGGPSVFLFPPKPKDTLMISRTPEVTCVVVDVSHEDPEVKFNWYVDGVEVHNAKTKPREEQYNSTYRVVSVLTVLHQDWLNGKEYKCKVSNKALPAPIEKTISKAKGQPREPQVCTLPPSRDELTKNQVSLWCLVKGFYPSDIAVEWESNGQPENNYKTTPPVLDSDGSFFLYSKLTVDKSRWQQGNVFSCSVMHEALHNRYTQKSLSLSP light: DIVMTQSPLSLPVTPGEPASISCRSSQSLVHSNRNTYLHWYQQKPGQAPRLLIYKVSNRFSGVPDRFSGSGSGTDFTLKISRVEAEDVGVYYCGQGTQVPYTFGQGTKLEIKRTVAAPSVFIFPPSDEQLKSGTASVVCLLNNFYPREAKVQWKVDNALQSGNSQESVTEQDSKDSTYSLSSTLTLSKADYEKHKVYACEVTHQGLSSPVTKSFNRGEC
